Data published in doi:10.1101/2020.07.13.201541.

Tests used:
Assay in all cases: SPR
[1] = molecular target: RpfG-MBP (Lysobacter enzymogenes)
[2] = molecular target: HtsH3C-Myc-His (cytoplasmic fragment of HtsH3) (Lysobacter enzymogenes)
[3] = molecular target: HtsH2C-HA-His (cytoplasmic fragment of HtsH2) (Lysobacter enzymogenes)

Kd [1]	Kd [2]	Kd [3]	Substance
0.3 nM	0.178 nM	–	HtsH2C-HA-His (cytoplasmic fragment of HtsH2) (domain or fragment)
0.168 nM	–	–	HtsH3C-Myc-His (cytoplasmic fragment of HtsH3) (domain or fragment)
0.0668 nM	0.16 nM	0.0962 nM	HtsH1C-Flag-His (cytoplasmic fragment of HtsH1) (domain or fragment)
